Reference: patent US20250297029A1 (NANJING LEGEND BIOTECH, published 2025)

What was measured:
GPC3 [1] = target: T1, GPC3 (UniProt P51654 25-559, limits assumed); experiment: SPR as in Example 1 (Biacore T200; scFv-Fc captured, GPC3 in flow)
T1 construct: also called antigen GPC3; Glypican 3
Text: (§1) The humanized VLs (VL1 and VL1.M2) were connected to humanized VHs (VH2, VH2.M1, VH2.M5 and VH2.M6) with a (G4S)₃ linker (SEQ ID NO: 10) to construct humanized scFvs. These scFvs were expressed with a C-terminal Fc tag in HEK293 cells. The crude scFv proteins secreted to the cell culture supernatant were used for binding affinity determination using surface plasmon resonance (SPR) on a Biacore T200 machine. Briefly, the scFv protein was captured on the sensor chip pre-coated with goat-anti-human Fc polyclonal antibody (pAb) (Jackson ImmunoResearch, cat #109-005-098) via the interaction between pAb and the Fc tag, then the antigen GPC3 concentration ranging from 10 nM to 320 nM flowed through the sensor chip. After 100 s of association, running buffer (10 mM HEPES, 150 mM NaCl, 3 mM EDTA, 0.005% Tween-20, pH 7.4) flowed through the sensor chip to allow the scFv-GPC3 complex to dissociation. The sensor chip was regenerated using 50 mM HCl between cycles.
To further improve the humanization of anti-GPC3 scFvs, additional amino acid residues in VH1 and VL1 were mutated to their human germline counterparts. In HCDR2 of VH2.M6, mutations K54S, T55G or both were introduced, yielding VH2.M8 (SEQ ID NO: 11), VH2.M9 (SEQ ID NO: 12) and VH2.M10 (SEQ ID NO: 13) sequences, respectively. Mutation D57S was introduced to VH2.M6, yielding VH2.M11 sequence (SEQ ID NO: 14). All three additional mutations was introduced to VH2.M6, yielding VH2.M12 sequence (SEQ ID NO: 15). Similarly for VL1.M2, an additional N35K mutation was introduced to LCDR1, yielding VL1.M3 (SEQ ID NO: 16). Additional S94M, N96G and V99W mutations were introduced to LCDR3 of VL1.M2 individually, yielding VL1.M6 (SEQ ID NO: 17), VL1.M7 (SEQ ID NO: 18) and VL1.M8 (SEQ ID NO: 19) sequences, respectively. Additional S94M mutations was introduced to LCDR3 of VL1, yielding VL1.M9 (SEQ ID NO: 137) sequence. The binding affinity of these humanized variants were again determined using SPR as described in Example 1 (Table 5).

GPC3 [2] = target: T1, GPC3; experiment: SPR (Biacore T200); scFv-Fc captured by anti-human Fc pAb, GPC3 10-320 nM in flow
Text: as §1

T1 sequence (P51654 25-559 limits assumed): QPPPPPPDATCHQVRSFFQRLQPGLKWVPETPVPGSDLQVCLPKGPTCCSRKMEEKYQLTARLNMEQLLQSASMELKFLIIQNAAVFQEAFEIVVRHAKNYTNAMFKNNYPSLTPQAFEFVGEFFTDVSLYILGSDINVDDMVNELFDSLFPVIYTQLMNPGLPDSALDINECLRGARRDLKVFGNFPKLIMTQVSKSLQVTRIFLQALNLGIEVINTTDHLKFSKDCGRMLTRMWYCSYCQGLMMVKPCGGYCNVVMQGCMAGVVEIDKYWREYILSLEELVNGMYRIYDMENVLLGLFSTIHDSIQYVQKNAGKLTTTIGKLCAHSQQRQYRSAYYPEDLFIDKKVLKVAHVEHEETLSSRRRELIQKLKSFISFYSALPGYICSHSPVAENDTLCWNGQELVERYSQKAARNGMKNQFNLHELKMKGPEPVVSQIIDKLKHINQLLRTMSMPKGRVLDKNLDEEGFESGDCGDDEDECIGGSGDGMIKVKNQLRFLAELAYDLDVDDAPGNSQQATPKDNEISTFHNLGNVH

Kd (GPC3 [1]) [nM] | koff (GPC3 [1]) [s⁻¹] | kon (GPC3 [1]) [M⁻¹ s⁻¹] | Kd (GPC3 [2]) [nM] | koff (GPC3 [2]) [s⁻¹] | kon (GPC3 [2]) [M⁻¹ s⁻¹] | Binder
4 | 0.00021 | 51000 | 1.8 | 0.00023 | 130000 | mouse anti-GPC3 GC33 scFv (VL-VH) (scFv, also called mouse scFv; not shown: C-terminal Fc tag (human Fc, used only for capture on the anti-human Fc chip) and any junction to it) scFv: DVVMTQTPLSLPVSLGDQASISCRSSQSLVHSNGNTYLHWYLQKPGQSPKLLIYKVSNRFSGVPDRFSGSGSGTDFTLKISRVEAEDLGVYFCSQNTHVPPTFGSGTKLEIKGGGGSGGGGSGGGGSQVQLQQSGAELVRPGASVKLSCKASGYTFTDYEMHWVKQTPVHGLKWIGALDPKTGDTAYSQKFKGKATLTADKSSSTAYMELRSLTSEDSAVYYCTRFYSYTYWGQGTLVTVSA
– | – | – | 1.7 | 0.00029 | 170000 | VL1-VH2 humanized scFv (scFv, not shown: a dimerising Fc or GST, Crude scFv with Fc tag from HEK293 supernatant) scFv: DIVMTQTPLSLSVTPGQPASISCRSSQSLVHSNGNTYLHWYLQKPGQSPQLLIYKVSNRFSGVPDRFSGSGSGTDFTLKISRVEAEDVGVYYCSQNTHVPPTFGQGTKVEIKGGGGSGGGGSGGGGSQVQLVQSGAEVKKPGASVKVSCKASGYTFTDYEMHWVRQAPGQGLEWMGALDPKTGDTAYSQKFKGRVTLTADTSTSTVYMELSSLRSEDTAVYYCTRFYSYTYWGQGTLVTVSS
6.8 | 0.0005 | 74000 | – | – | – | VL1.M2-VH2.M10 humanized scFv (scFv, not shown: a dimerising Fc or GST) scFv: DIVMTQTPLSLSVTPGQPASISCRSSQSLVHSNGNTYLHWYLQKPGQSPQLLIYKVSSRFSGVPDRFSGSGSGTDFTLKISRVEAEDVGVYYCSQNTHVPPTFGQGTKVEIKGGGGSGGGGSGGGGSQVQLVQSGAEVKKPGASVKVSCKASGYTFTSYEMHWVRQAPGQGLEWMGALDPSGGDTAYSQKFQGRVTLTADTSTSTVYMELSSLRSEDTAVYYCTRFYSYTYWGQGTLVTVSS
5.7 | 0.00058 | 100000 | – | – | – | VL1.M6-VH2.M6 humanized scFv (scFv, not shown: a dimerising Fc or GST) scFv: DIVMTQTPLSLSVTPGQPASISCRSSQSLVHSNGNTYLHWYLQKPGQSPQLLIYKVSSRFSGVPDRFSGSGSGTDFTLKISRVEAEDVGVYYCMQNTHVPPTFGQGTKVEIKGGGGSGGGGSGGGGSQVQLVQSGAEVKKPGASVKVSCKASGYTFTSYEMHWVRQAPGQGLEWMGALDPKTGDTAYSQKFQGRVTLTADTSTSTVYMELSSLRSEDTAVYYCTRFYSYTYWGQGTLVTVSS
6 | 0.00044 | 74000 | – | – | – | VL1.M2-VH2.M8 humanized scFv (scFv, not shown: a dimerising Fc or GST) scFv: DIVMTQTPLSLSVTPGQPASISCRSSQSLVHSNGNTYLHWYLQKPGQSPQLLIYKVSSRFSGVPDRFSGSGSGTDFTLKISRVEAEDVGVYYCSQNTHVPPTFGQGTKVEIKGGGGSGGGGSGGGGSQVQLVQSGAEVKKPGASVKVSCKASGYTFTSYEMHWVRQAPGQGLEWMGALDPSTGDTAYSQKFQGRVTLTADTSTSTVYMELSSLRSEDTAVYYCTRFYSYTYWGQGTLVTVSS
– | – | – | 1.6 | 0.00027 | 170000 | VL1-VH2.M5 humanized scFv (scFv, not shown: a dimerising Fc or GST, Crude scFv with Fc tag from HEK293 supernatant) scFv: DIVMTQTPLSLSVTPGQPASISCRSSQSLVHSNGNTYLHWYLQKPGQSPQLLIYKVSNRFSGVPDRFSGSGSGTDFTLKISRVEAEDVGVYYCSQNTHVPPTFGQGTKVEIKGGGGSGGGGSGGGGSQVQLVQSGAEVKKPGASVKVSCKASGYTFTDYEMHWVRQAPGQGLEWMGALDPKTGDTAYSQKFQGRVTLTADTSTSTVYMELSSLRSEDTAVYYCTRFYSYTYWGQGTLVTVSS

The remaining lines, values behind:

Binder | Kd (GPC3 [1]) [nM] | koff (GPC3 [1]) [s⁻¹] | kon (GPC3 [1]) [M⁻¹ s⁻¹] | Kd (GPC3 [2]) [nM] | koff (GPC3 [2]) [s⁻¹] | kon (GPC3 [2]) [M⁻¹ s⁻¹]
VL1.M2-VH2.M1 humanized scFv (scFv, not shown: a dimerising Fc or GST, Crude scFv with Fc tag from HEK293 supernatant) scFv: DIVMTQTPLSLSVTPGQPASISCRSSQSLVHSNGNTYLHWYLQKPGQSPQLLIYKVSSRFSGVPDRFSGSGSGTDFTLKISRVEAEDVGVYYCSQNTHVPPTFGQGTKVEIKGGGGSGGGGSGGGGSQVQLVQSGAEVKKPGASVKVSCKASGYTFTSYEMHWVRQAPGQGLEWMGALDPKTGDTAYSQKFKGRVTLTADTSTSTVYMELSSLRSEDTAVYYCTRFYSYTYWGQGTLVTVSS | – | – | – | 3 | 0.00051 | 170000
VL1.M2-VH2 humanized scFv (scFv, not shown: a dimerising Fc or GST, Crude scFv with Fc tag from HEK293 supernatant) scFv: DIVMTQTPLSLSVTPGQPASISCRSSQSLVHSNGNTYLHWYLQKPGQSPQLLIYKVSSRFSGVPDRFSGSGSGTDFTLKISRVEAEDVGVYYCSQNTHVPPTFGQGTKVEIKGGGGSGGGGSGGGGSQVQLVQSGAEVKKPGASVKVSCKASGYTFTDYEMHWVRQAPGQGLEWMGALDPKTGDTAYSQKFKGRVTLTADTSTSTVYMELSSLRSEDTAVYYCTRFYSYTYWGQGTLVTVSS | – | – | – | 2.2 | 0.00035 | 160000
VL1.M8-VH2.M6 humanized scFv (scFv, not shown: a dimerising Fc or GST) scFv: DIVMTQTPLSLSVTPGQPASISCRSSQSLVHSNGNTYLHWYLQKPGQSPQLLIYKVSSRFSGVPDRFSGSGSGTDFTLKISRVEAEDVGVYYCSQNTHWPPTFGQGTKVEIKGGGGSGGGGSGGGGSQVQLVQSGAEVKKPGASVKVSCKASGYTFTSYEMHWVRQAPGQGLEWMGALDPKTGDTAYSQKFQGRVTLTADTSTSTVYMELSSLRSEDTAVYYCTRFYSYTYWGQGTLVTVSS | 44 | 0.0042 | 94000 | – | – | –
VL1.M7-VH2.M6 humanized scFv (scFv, not shown: a dimerising Fc or GST) scFv: DIVMTQTPLSLSVTPGQPASISCRSSQSLVHSNGNTYLHWYLQKPGQSPQLLIYKVSSRFSGVPDRFSGSGSGTDFTLKISRVEAEDVGVYYCSQGTHVPPTFGQGTKVEIKGGGGSGGGGSGGGGSQVQLVQSGAEVKKPGASVKVSCKASGYTFTSYEMHWVRQAPGQGLEWMGALDPKTGDTAYSQKFQGRVTLTADTSTSTVYMELSSLRSEDTAVYYCTRFYSYTYWGQGTLVTVSS | 51 | 0.0034 | 67000 | – | – | –
VL1.M3-VH2.M6 humanized scFv (scFv, not shown: a dimerising Fc or GST) scFv: DIVMTQTPLSLSVTPGQPASISCRSSQSLVHSNGKTYLHWYLQKPGQSPQLLIYKVSSRFSGVPDRFSGSGSGTDFTLKISRVEAEDVGVYYCSQNTHVPPTFGQGTKVEIKGGGGSGGGGSGGGGSQVQLVQSGAEVKKPGASVKVSCKASGYTFTSYEMHWVRQAPGQGLEWMGALDPKTGDTAYSQKFQGRVTLTADTSTSTVYMELSSLRSEDTAVYYCTRFYSYTYWGQGTLVTVSS | 27 | 0.0016 | 61000 | – | – | –
VL1-VH2.M1 humanized scFv (scFv, not shown: a dimerising Fc or GST, Crude scFv with Fc tag from HEK293 supernatant) scFv: DIVMTQTPLSLSVTPGQPASISCRSSQSLVHSNGNTYLHWYLQKPGQSPQLLIYKVSNRFSGVPDRFSGSGSGTDFTLKISRVEAEDVGVYYCSQNTHVPPTFGQGTKVEIKGGGGSGGGGSGGGGSQVQLVQSGAEVKKPGASVKVSCKASGYTFTSYEMHWVRQAPGQGLEWMGALDPKTGDTAYSQKFKGRVTLTADTSTSTVYMELSSLRSEDTAVYYCTRFYSYTYWGQGTLVTVSS | – | – | – | 1.9 | 0.00036 | 190000
VL1.M2-VH2.M9 humanized scFv (scFv, not shown: a dimerising Fc or GST) scFv: DIVMTQTPLSLSVTPGQPASISCRSSQSLVHSNGNTYLHWYLQKPGQSPQLLIYKVSSRFSGVPDRFSGSGSGTDFTLKISRVEAEDVGVYYCSQNTHVPPTFGQGTKVEIKGGGGSGGGGSGGGGSQVQLVQSGAEVKKPGASVKVSCKASGYTFTSYEMHWVRQAPGQGLEWMGALDPKGGDTAYSQKFQGRVTLTADTSTSTVYMELSSLRSEDTAVYYCTRFYSYTYWGQGTLVTVSS | 8.2 | 0.0006 | 74000 | – | – | –
VL1.M2-VH2.M5 humanized scFv (scFv, not shown: a dimerising Fc or GST, Crude scFv with Fc tag from HEK293 supernatant) scFv: DIVMTQTPLSLSVTPGQPASISCRSSQSLVHSNGNTYLHWYLQKPGQSPQLLIYKVSSRFSGVPDRFSGSGSGTDFTLKISRVEAEDVGVYYCSQNTHVPPTFGQGTKVEIKGGGGSGGGGSGGGGSQVQLVQSGAEVKKPGASVKVSCKASGYTFTDYEMHWVRQAPGQGLEWMGALDPKTGDTAYSQKFQGRVTLTADTSTSTVYMELSSLRSEDTAVYYCTRFYSYTYWGQGTLVTVSS | – | – | – | 2.1 | 0.00037 | 170000
VL1-VH2.M6 humanized scFv (scFv, not shown: a dimerising Fc or GST, Crude scFv with Fc tag from HEK293 supernatant) scFv: DIVMTQTPLSLSVTPGQPASISCRSSQSLVHSNGNTYLHWYLQKPGQSPQLLIYKVSNRFSGVPDRFSGSGSGTDFTLKISRVEAEDVGVYYCSQNTHVPPTFGQGTKVEIKGGGGSGGGGSGGGGSQVQLVQSGAEVKKPGASVKVSCKASGYTFTSYEMHWVRQAPGQGLEWMGALDPKTGDTAYSQKFQGRVTLTADTSTSTVYMELSSLRSEDTAVYYCTRFYSYTYWGQGTLVTVSS | – | – | – | 2 | 0.00037 | 190000
